Target: HSV-2 virion protein 22 (VP22), encoded by gene UL49 peptide on HLA-B*07:02 (human)
Test: 51Cr release
Settings: chains alpha TCRAV38-2 CDR3:beta TCRBV5-1 CDR3

| Binder | EC50 of peptide |
| --- | --- |
| clone 9.30 (peptide) chain 1: CAFGRGAQKLVF chain 2: CATRIGWGTDTQYF | 110 pM |
| clone 9.66 (peptide) chain 1: CAFGRGAQKLVF chain 2: CATRIGWGTDTQYF | 100 pM |
